Legend:
[1] = biological target: N-terminal FLAG-tagged fusion protein including most of the extracellular region of human IL-13Rα1 (human) (UniProt P78552); test: BIACORE, receptor ECR immobilized on CM5 chip, mAb in solution
[2] = biological target: T1, cynomolgus IL-13Rα1.ECR, N-terminal FLAG-tagged fusion protein (cynomolgus macaque); test: as above
T1 sequence: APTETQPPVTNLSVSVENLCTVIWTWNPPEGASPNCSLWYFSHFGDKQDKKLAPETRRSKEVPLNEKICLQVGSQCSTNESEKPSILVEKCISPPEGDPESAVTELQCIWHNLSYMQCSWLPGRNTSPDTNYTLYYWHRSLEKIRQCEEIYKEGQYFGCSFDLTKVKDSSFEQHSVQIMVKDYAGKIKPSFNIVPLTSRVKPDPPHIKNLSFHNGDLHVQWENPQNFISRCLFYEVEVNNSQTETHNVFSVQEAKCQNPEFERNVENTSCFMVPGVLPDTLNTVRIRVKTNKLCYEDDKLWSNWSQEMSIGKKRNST

B1: murine antibody 1D9 reported in WO 03/080675 (ECACC deposit 03032101) (antibody, from another filing, V domains shown)
VH: EVKLVESGGGLVKPGGSLKLSCAASGFTFSGYGMSWVRQTPEKRLEWVATISGLGGYTYYPDSVKGRFTISRDNAKNTLYLQMSSLRSDDTAFYYCARRFYGDYVGAMDYWGQGTSVTVSS
VL: DILMTQAAFSNPVTLGTSASISCRSSKSLLHSNGITYLYWYLQKPGQSPQLLIYQMSNLASGVPDRFSCSGSGTDFTLSISRVEAEDVGFYYCAQNLELPFTFGSGTKLEIE
- Kd [1]: 0.207 nM
- Kd [2]: 0.247 nM
